These results are taken from patent US20040009569A1, “Kinase crystal structures and materials and methods for kinase activation” (priority 2001, published 2004).

Assay [1] addresses T1, pΔPH-PKB-ΔC (PKBβ residues 146 to 460, phosphorylated in vitro on Thr-309) (Homo sapiens, UniProt P31751).
T1 construct: pΔPH-PKB-ΔC (residues 146 to 460, phosphorylated in vitro on Thr-309); 6xHis (N, cleaved yes); made in house; host or cells: Sf9 insect cells / baculovirus (pFastBacHTa)
In words: Protein kinase B assay with Crosstide as substrate, peptide stimulation of pΔPH-PKB-ΔC. It counts as biochemical. The settings on record: for fold lower affinity than PIFtide, from estimated EC50: PKB not phosphorylated on Ser 474; for stimulation of pΔPH-PKB-ΔC activity (in words): PIFtide peptides at 210-250 μM, PKB HM-peptide up to 1.2 mM. As to the method: To test the model that Ser 474 phosphorylation promotes an interaction between the hydrophobic motif and the induced hydrophobic groove of the N-terminal lobe, thereby causing an allosteric activation of the kinase, the ability of peptides modelled on the hydrophobic motif of PKB to activate the enzyme via an intermolecular association with the N-terminal lobe was assessed.
(§1) PKB was assayed essentially as described by Andjelkovic et al. (1999) with 30 μM Crosstide (GRPRTSSAEG) as substrate except the protein kinase A inhibitor peptide was not added to the reactions. For peptide stimulation experiments the various peptides were dissolved in water and added to the kinase assay mix prior to adding the PKB protein. Peptides were synthesized by Franz Fischer at the FMI or purchased from Neosystem, Strasburg, France.
(§2) All experiments were performed in either duplicate or triplicate.

Assay [2] concerns the target T2, His tagged pΔPH-PKB-ΔC wild type (Homo sapiens, UniProt P31751).
T2 construct: pΔPH-PKB-ΔC (residues 146 to 460, phosphorylated in vitro on Thr-309); made in house; host or cells: HEK cells (transient expression), purified on Ni-NTA agarose
In words: PIFtide responsiveness of His tagged wild type pΔPH-PKB-ΔC expressed in HEK cells. The settings on record: incomplete Thr 309 phosphorylation. The class given is biochemical. As to the method:
To test the notion that a hydrophobic groove is induced in PKB to engage the hydrophobic motif, and activate the kinase, a series of His tagged pΔPH-PKB-ΔC hydrophobic groove mutants were prepared and their responsiveness to PIFtide assessed. PKB mutants were transiently expressed in HEK cells, phosphorylated in vitro with PDK1, and purified using Ni-NTA agarose. […] Wild type PKB prepared using this procedure was stimulated ˜5-fold by 130 μM PIFtide (FIG. 6B).
as §1

The target of assay [3] is T3, ΔPH-PKB phosphorylated on both Thr 309 and Ser 474 (Homo sapiens, UniProt P31751).
T3 construct: Purification of ΔPH-PKBβ-ΔC (Residues 146-460) and ΔPH-PKBβ (Residues 146-481); 6xHis (N, cleaved yes); made in house; host or cells: Sf9 insect cells / baculovirus (pFastBacHTa)
Nature of the assay: Protein kinase B assay with Crosstide, peptide stimulation of doubly phosphorylated ΔPH-PKB. The class given is biochemical. Here is the method: as §1, §2

The next assay addresses T4, pΔPH-PKB-ΔC (Homo sapiens, UniProt P31751).
T4 construct: pΔPH-PKB-ΔC (residues 146 to 460, phosphorylated in vitro on Thr-309); 6xHis (N, cleaved yes); made in house; host or cells: Sf9 insect cells / baculovirus (pFastBacHTa)
In words: Isothermal titration calorimetry, peptide binding to pΔPH-PKB-ΔC. Here is the method: (C) Isothermal titration calorimetry measurements of the binding of PIFtide to pΔPH-PKB-ΔC (left) and ΔPH-PKB-ΔC (right). Upper panel, raw data of the titration of PIFtide into pΔPH-PKB-ΔC. Lower panel, integrated heats of injections, corrected for the heat of dilution, with the solid line corresponding to the best fit of the data using the MicroCal software.
Using isothermal titration calorimetry, the affinity between PIFtide and both pΔPH-PKB-ΔC and ΔPH-PKB-ΔC was determined (FIG. 5C). […] The observed large decrease in entropy is […] typical of protein-peptide interactions, for example SH2-domain-phosphotyrosine peptide complexes (Ladbury et al., 1996), and is consistent with an ordering of both the protein, presumably the αB- and αC-helices of the N-lobe, and peptide on complex formation.

For assay [4], the target named is ΔPH-PKBβ-ΔC (human PKBβ residues 146 to 460, not phosphorylated on Thr-309) (human) (UniProt P31751). Nature of the assay: isothermal titration calorimetry. Background: Isothermal titration calorimetry measures the heat released or taken up as one component is titrated into another.
For assay [5], the target named is His tagged pΔPH-PKB-ΔC, wild type, transiently expressed in HEK cells (human) (UniProt P31751). Nature of the assay: cell-based or functional assay.
The target of assay [6] is ΔPH-PKB (human PKBβ residues 146-481) phosphorylated on Thr 309 (human) (UniProt P31751). In words: cell-based or functional assay.
Assay [7] has as its target pΔPH-PKBβ-ΔC (human PKBβ residues 146 to 460, phosphorylated in vitro on Thr-309) (human) (UniProt P31751). Nature of the assay: cell-based or functional assay.
The target in assay [8] is His tagged pΔPH-PKB-ΔC hydrophobic groove mutant V194A-V198A (human) (UniProt P31751). Nature of the assay: cell-based or functional assay.
Assay [9] has as its target pΔPH-PKBβ-ΔC (human PKBβ residues 146 to 460, phosphorylated in vitro on Thr-309) (human) (UniProt P31751). In words: cell-based or functional assay. The source holds these as a separate data set.
Setting [10] is: assuming activation at saturating peptide similar to that induced by PIFtide, read-out: EC50 estimated from FIG. 5A.

“Also recorded” adds a separate entry of the source. Where two headings read alike, the source gives them in different places. Square brackets hold non-standard residues; d marks the D form. Peptide text beside a SMILES is read from it. pS = N[C@@H](COP(=O)(O)O)C(=O)O

pΔPH-PKBβ-ΔC (human PKBβ residues 146 to 460, phosphorylated in vitro on Thr-309) (human), sequence (P31751 146-460, stated change not applied): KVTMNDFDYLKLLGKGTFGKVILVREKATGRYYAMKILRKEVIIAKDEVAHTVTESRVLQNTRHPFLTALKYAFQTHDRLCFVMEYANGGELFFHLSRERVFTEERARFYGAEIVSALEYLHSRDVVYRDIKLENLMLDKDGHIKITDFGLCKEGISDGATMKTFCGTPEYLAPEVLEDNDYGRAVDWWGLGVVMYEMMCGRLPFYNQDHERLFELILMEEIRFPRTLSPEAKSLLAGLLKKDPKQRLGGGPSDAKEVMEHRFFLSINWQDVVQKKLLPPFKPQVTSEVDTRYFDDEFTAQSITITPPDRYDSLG
T1 sequence (P31751 146-460, stated change not applied): as above
ΔPH-PKBβ-ΔC (human PKBβ residues 146 to 460, not phosphorylated on Thr-309) (human), sequence (P31751 146-460, stated change not applied): as above
His tagged pΔPH-PKB-ΔC hydrophobic groove mutant V194A-V198A (human), sequence (P31751 146-460 V194A/V198A limits assumed): as the sequence (P31751 146-460, stated change not applied) above, with V49A, V53A counted along it
T4 sequence (P31751 146-460, stated change not applied): as the sequence (P31751 146-460, stated change not applied) above
T2 sequence (P31751 146-460, stated change not applied): as above
His tagged pΔPH-PKB-ΔC, wild type, transiently expressed in HEK cells (human), sequence (P31751 146-460, stated change not applied): as above
T3 sequence (P31751 146-481, stated change not applied): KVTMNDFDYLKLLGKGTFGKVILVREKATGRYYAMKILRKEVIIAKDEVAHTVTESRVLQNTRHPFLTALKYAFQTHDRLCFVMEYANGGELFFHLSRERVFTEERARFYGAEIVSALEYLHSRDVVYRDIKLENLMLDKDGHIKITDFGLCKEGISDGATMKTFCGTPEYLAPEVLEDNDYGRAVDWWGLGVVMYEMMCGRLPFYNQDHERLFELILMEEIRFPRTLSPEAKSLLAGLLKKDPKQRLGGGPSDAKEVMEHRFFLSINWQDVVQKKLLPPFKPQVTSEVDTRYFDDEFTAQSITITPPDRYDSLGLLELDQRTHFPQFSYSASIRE

`CC[C@H](C)[C@H](NC(=O)[C@H](CO)NC(=O)[C@H](C)NC(=O)[C@H](CO)NC(=O)[C@H](Cc1ccc(O)cc1)NC(=O)[C@H](COP(=O)(O)O)NC(=O)[C@H](Cc1ccccc1)NC(=O)[C@H](CCC(N)=O)NC(=O)[C@@H]1CCCN1C(=O)[C@H](Cc1ccccc1)NC(=O)[C@H](Cc1c[nH]cn1)NC(=O)[C@@H](NC(=O)[C@H](CCCNC(=N)N)NC(=O)[C@H](CCC(N)=O)NC(=O)[C@H](CC(=O)O)NC(=O)[C@H](CC(C)C)NC(=O)[C@H](CCC(=O)O)NC(=O)[C@H](CC(C)C)NC(=O)[C@H](CC(C)C)NC(=O)CN)[C@@H](C)O)C(=O)N[C@@H](CCCNC(=N)N)C(=O)N[C@@H](CCC(=O)O)C(=O)O` [HM-P, GLLELDQRTHFPQFpSYSASIRB] (H-GLLELDQRTHFPQF[pS]YSASIRE-OH; N-terminus and C-terminus assumed): the “fold lower affinity than PIFtide, from estimated EC50” value in assay [1] is listed as around 1000 fold. Also, the EC50 – broadly, the concentration that produces a half-maximal response – in [1] (setting [10]) is 2300 µM. Besides, the “activation of wild type PKB by PKB HM-peptide (in words)” value in assay [2] is listed as “did not elicit measurable activation”. Also, the “activation of ΔPH-PKB phosphorylated on both Thr 309 and Ser 474 (in words)” value in assay [3] is “did not further activate”.
With `CC[C@H](C)[C@H](NC(=O)[C@H](Cc1ccc(O)cc1)NC(=O)[C@H](C)NC(=O)[C@H](Cc1ccccc1)NC(=O)[C@H](CC(=O)O)NC(=O)[C@H](CCCNC(=N)N)NC(=O)[C@H](Cc1ccccc1)NC(=O)[C@H](CCSC)NC(=O)[C@H](CCC(=O)O)NC(=O)[C@H](CCC(N)=O)NC(=O)[C@H](CCC(=O)O)NC(=O)[C@H](CCC(=O)O)NC(=O)[C@H](CCC(=O)O)NC(=O)[C@H](CO)NC(=O)[C@H](CC(C)C)NC(=O)[C@@H](NC(=O)[C@H](CCCNC(=N)N)NC(=O)[C@@H]1CCCN1C(=O)[C@H](CCC(=O)O)NC(=O)[C@@H](N)CCCNC(=N)N)[C@@H](C)CC)C(=O)N[C@@H](C)C(=O)N[C@@H](CC(=O)O)C(=O)N[C@@H](Cc1c[nH]c2ccccc12)C(=O)O` [PIFtide(D->A)] (H-REPRILSEEEQEMFRDFAYIADW-OH; N-terminus and C-terminus assumed), the “fold lower affinity than PIFtide, from EC50” value in [1] is given as 10 fold. In addition, in assay [1] (Crosstide substrate, value of PIFtide(D->A) called estimated, read-out: EC50 for activation of pΔPH-PKB-ΔC), the EC50 was 30 µM. Moreover, the “maximal activation of pΔPH-PKB-ΔC compared with wild type PIFtide (in words)” value in assay [1] (saturating / high concentrations of the mutant peptide) is listed as “identical to that of the wild type peptide; also recorded: could activate PKB maximally”. The “fold lower affinity relative to PIFtide, ITC” value at pΔPH-PKB-ΔC is listed as “approximately 25 fold”.
Consider `CC[C@H](C)[C@H](NC(=O)[C@H](CO)NC(=O)[C@H](C)NC(=O)[C@H](CO)NC(=O)[C@H](Cc1ccc(O)cc1)NC(=O)[C@H](CC(=O)O)NC(=O)[C@H](Cc1ccccc1)NC(=O)[C@H](CCC(N)=O)NC(=O)[C@@H]1CCCN1C(=O)[C@H](Cc1ccccc1)NC(=O)[C@H](Cc1c[nH]cn1)NC(=O)[C@@H](NC(=O)[C@H](CCCNC(=N)N)NC(=O)[C@H](CCC(N)=O)NC(=O)[C@H](CC(=O)O)NC(=O)[C@H](CC(C)C)NC(=O)[C@H](CCC(=O)O)NC(=O)[C@H](CC(C)C)NC(=O)[C@H](CC(C)C)NC(=O)CN)[C@@H](C)O)C(=O)N[C@@H](CCCNC(=N)N)C(=O)N[C@@H](CCC(=O)O)C(=O)O` [PKB HM-D] (H-GLLELDQRTHFPQFDYSASIRE-OH; N-terminus and C-terminus assumed), for which, in [1], the “fold lower affinity than PIFtide, from estimated EC50” value is listed as around 1000 fold. For the same molecule, the EC50 in [1] (setting [10]) is 3600 µM.
For the molecule GLLELDQRTHFPQFSYSASIRE [PKB HM-S], the “stimulation of pΔPH-PKB-ΔC activity (in words)” value in [1] (Crosstide substrate) was “did not stimulate”.
Still for that read-out and setting: for “MFRDFDYIADW [PIFtide1, 11-residue peptide encompassing the six-residue hydrophobic motif of PIFtide]” the value was “essentially recapitulates the activation”.
In assay [4], “PIFtide (synthetic peptide encompassing the PRK2 hydrophobic motif)” registered a TΔS of -9.2 kcal/mol and a ΔH of -16 kcal/mol. In addition, the stimulation of PKB kinase activity by 130 µM PIFtide in [5] stood at 5 fold. Moreover, the activation of PKB kinase activity in [6] came out at 5 fold. Further, in assay [7], the EC50 of activation of kinase activity amounted to 3 µM; the activation of PKB kinase activity came out at 15 fold; the peptide concentration giving maximum and saturable activation came to 20 µM; the specific activity of pΔPH-PKB-ΔC maximally activated by PIFtide turned out to be 350 nmol/min/mg. The same molecule came in with a PIFtide activation relative to wild type (% of wild type) in [8] of 25.
“PKB HM-P (peptide modelled on the phosphorylated hydrophobic motif of PKBβ, residues 460-481)”: in assay [7], the estimated EC50 of activation of kinase activity is 2300 µM; the fold lower affinity than PIFtide, from the estimated EC50 of activation was 1000 fold; the stimulation of PKB kinase activity towards Crosstide came out at 4 fold.
Consider GLLELDQRTHFPQFDYSASIRE [PKB HM-D (PKB hydrophobic motif peptide with aspartate at position 474)], for which, in assay [9], the estimated EC50 of activation of kinase activity is 3600 µM; the fold lower affinity than PIFtide, from the estimated EC50 of activation was 1000 fold; the stimulation of PKB kinase activity towards Crosstide worked out at 3 fold.
